Our source for the protein stability index values is the supplement of paper PMC10567573.

B1: GLT8D2 (parent)
chain: QEAKLLHWNGRHKPWDFPSVHNDL
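Note: lentivirally expressed fusions sorted by FACS into six bins by GFP to DsRed ratio, PSI derived from sequencing read proportions per bin multiplied by bin number.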

In this data set the parent is B1. As to the kind of experiment: protein stability index of a GFP-peptide fusion (GPS, HEK-293T) (PSI 1-6); higher = more stable. The following applies: c terminus: a fixed tail appended.
As to QEAKLLHWRGRHKPWDFPSVHNDL [N9R], the protein stability index worked out at 2.46.
In the case of QEAKLLHWVGRHKPWDFPSVHNDL [N9V] it was 2.25; in that of QEAKLLHWFGRHKPWDFPSVHNDL [N9F], 1.98; in that of QEAKLLHWYGRHKPWDFPSVHNDL [N9Y], 2.33.
Take QEAKLLHWEGRHKPWDFPSVHNDL [N9E]: the protein stability index amounted to 2.73.
For the variant QEAKLLHWHGRHKPWDFPSVHNDL [N9H], the protein stability index came out at 2.73.
For QEAKLLHWMGRHKPWDFPSVHNDL [N9M] the value was 2.1; for QEAKLLHWPGRHKPWDFPSVHNDL [N9P], 2.56; for QEAKLLHWTGRHKPWDFPSVHNDL [N9T], 2.59.
With QEAKLLHWLGRHKPWDFPSVHNDL [N9L], the protein stability index was 1.83.
For QEAKLLHWWGRHKPWDFPSVHNDL [N9W] the value was 1.75; for QEAKLLHWIGRHKPWDFPSVHNDL [N9I], 2.
For QEAKLLHWKGRHKPWDFPSVHNDL [N9K] the value was 2.92; for QEAKLLHWGGRHKPWDFPSVHNDL [N9G], 2.59; for QEAKLLHWDGRHKPWDFPSVHNDL [N9D], 2.87.
Take QEAKLLHWSGRHKPWDFPSVHNDL [N9S]: the protein stability index stood at 2.67.
In the case of QEAKLLHWCGRHKPWDFPSVHNDL [N9C] it was 2.41; in that of QEAKLLHWAGRHKPWDFPSVHNDL [N9A], 2.71; in that of QEAKLLHWNGRWKPWDFPSVHNDL [H12W], 2.54.
In the case of QEAKLLHWNGRCKPWDFPSVHNDL [H12C] it was 2.71.
As for QEAKLLHWNGRIKPWDFPSVHNDL [H12I], the protein stability index came to 2.56.
Consider QEAKLLHWNGRRKPWDFPSVHNDL [H12R], for which the protein stability index was found to be 2.77.
On to QEAKLLHWNGRYKPWDFPSVHNDL [H12Y], for which the protein stability index came out at 2.28.
Consider QEAKLLHWNGREKPWDFPSVHNDL [H12E], for which the protein stability index was 3.19.
For QEAKLLHWNGRVKPWDFPSVHNDL [H12V], the protein stability index came out at 2.61.
For QEAKLLHWNGRLKPWDFPSVHNDL [H12L], the protein stability index is 2.45.
For QEAKLLHWNGRPKPWDFPSVHNDL [H12P] the value was 2.68; for QEAKLLHWNGRGKPWDFPSVHNDL [H12G], 2.59.
For QEAKLLHWNGRSKPWDFPSVHNDL [H12S] the value was 2.77; for QEAKLLHWNGRDKPWDFPSVHNDL [H12D], 3.26; for QEAKLLHWNGRTKPWDFPSVHNDL [H12T], 2.79.
With QEAKLLHWNGRFKPWDFPSVHNDL [H12F], the protein stability index was found to be 2.13.
For QEAKLLHWNGRQKPWDFPSVHNDL [H12Q] the value was 2.58; for QEAKLLHWNGRKKPWDFPSVHNDL [H12K], 2.73; for QEAKLLHWNGRNKPWDFPSVHNDL [H12N], 2.65.
For QEAKLLHWNGRMKPWDFPSVHNDL [H12M] the value was 2.6; for QEAKLLHWNGRAKPWDFPSVHNDL [H12A], 2.36.
For the variant QEAKLLHWNGIHKPWDFPSVHNDL [R11I], the protein stability index was 2.76.
For QEAKLLHWNGHHKPWDFPSVHNDL [R11H] the value was 2.64; for QEAKLLHWNGQHKPWDFPSVHNDL [R11Q], 3.35; for QEAKLLHWNGCHKPWDFPSVHNDL [R11C], 2.55.
In the case of QEAKLLHWNGEHKPWDFPSVHNDL [R11E] it was 3.58.
For QEAKLLHWNGAHKPWDFPSVHNDL [R11A], the protein stability index is 3.24.
In the case of QEAKLLHWNGPHKPWDFPSVHNDL [R11P] it was 2.33; in that of QEAKLLHWNGMHKPWDFPSVHNDL [R11M], 3.1; in that of QEAKLLHWNGWHKPWDFPSVHNDL [R11W], 2.18.
For QEAKLLHWNGDHKPWDFPSVHNDL [R11D] the value was 3.33; for QEAKLLHWNGNHKPWDFPSVHNDL [R11N], 3.05; for QEAKLLHWNGFHKPWDFPSVHNDL [R11F], 2.58.
Turning to QEAKLLHWNGVHKPWDFPSVHNDL [R11V], the protein stability index was found to be 2.62.
Turning to QEAKLLHWNGGHKPWDFPSVHNDL [R11G], the protein stability index was 2.64.
Turning to QEAKLLHWNGKHKPWDFPSVHNDL [R11K], the protein stability index stood at 2.61.
For QEAKLLHWNGTHKPWDFPSVHNDL [R11T] the value was 3.11.
For QEAKLLHWNGLHKPWDFPSVHNDL [R11L], the protein stability index came to 2.34.
For QEAKLLHWNGSHKPWDFPSVHNDL [R11S] the value was 2.82; for QEAKLLHWNGYHKPWDFPSVHNDL [R11Y], 2.28.
For QEAKLLTWNGRHKPWDFPSVHNDL [H7T], the protein stability index came to 2.88.
In the case of QEAKLLGWNGRHKPWDFPSVHNDL [H7G] it was 2.63; in that of QEAKLLDWNGRHKPWDFPSVHNDL [H7D], 3.16.
Turning to QEAKLLWWNGRHKPWDFPSVHNDL [H7W], the protein stability index was 2.84.
As for QEAKLLFWNGRHKPWDFPSVHNDL [H7F], the protein stability index is 2.41.
On to QEAKLLAWNGRHKPWDFPSVHNDL [H7A], for which the protein stability index is 2.87.
As for QEAKLLCWNGRHKPWDFPSVHNDL [H7C], the protein stability index amounted to 2.25.
In the case of QEAKLLSWNGRHKPWDFPSVHNDL [H7S] it was 2.69; in that of QEAKLLIWNGRHKPWDFPSVHNDL [H7I], 2.25; in that of QEAKLLNWNGRHKPWDFPSVHNDL [H7N], 2.54.
For QEAKLLYWNGRHKPWDFPSVHNDL [H7Y] the value was 1.85; for QEAKLLEWNGRHKPWDFPSVHNDL [H7E], 2.98; for QEAKLLVWNGRHKPWDFPSVHNDL [H7V], 2.1.
In the case of QEAKLLPWNGRHKPWDFPSVHNDL [H7P] it was 2.94; in that of QEAKLLMWNGRHKPWDFPSVHNDL [H7M], 2.56; in that of QEAKLLRWNGRHKPWDFPSVHNDL [H7R], 2.81.
As for QEAKLLQWNGRHKPWDFPSVHNDL [H7Q], the protein stability index is 2.9.
Consider QEAKLLLWNGRHKPWDFPSVHNDL [H7L], for which the protein stability index was determined as 2.15.
Take QEAKLLKWNGRHKPWDFPSVHNDL [H7K]: the protein stability index is 2.48.
Consider QEAKLQHWNGRHKPWDFPSVHNDL [L6Q], for which the protein stability index came to 2.76.
Turning to QEAKLDHWNGRHKPWDFPSVHNDL [L6D], the protein stability index came out at 2.79.
In the case of QEAKLTHWNGRHKPWDFPSVHNDL [L6T], the protein stability index turned out to be 2.68.
In the case of QEAKLKHWNGRHKPWDFPSVHNDL [L6K] it was 2.52.
In the case of QEAKLWHWNGRHKPWDFPSVHNDL [L6W] it was 2.26.
For QEAKLHHWNGRHKPWDFPSVHNDL [L6H] the value was 2.62; for QEAKLPHWNGRHKPWDFPSVHNDL [L6P], 2.7.
QEAKLSHWNGRHKPWDFPSVHNDL [L6S]: the protein stability index came to 2.91.
Consider QEAKLAHWNGRHKPWDFPSVHNDL [L6A], for which the protein stability index is 2.87.
For QEAKLCHWNGRHKPWDFPSVHNDL [L6C], the protein stability index worked out at 2.75.
In the case of QEAKLEHWNGRHKPWDFPSVHNDL [L6E] it was 3.74.
For QEAKLGHWNGRHKPWDFPSVHNDL [L6G] the value was 2.89.
In the case of QEAKLIHWNGRHKPWDFPSVHNDL [L6I], the protein stability index was 2.67.
For QEAKLRHWNGRHKPWDFPSVHNDL [L6R] the value was 2.85; for QEAKLFHWNGRHKPWDFPSVHNDL [L6F], 2.83.
For QEAKLYHWNGRHKPWDFPSVHNDL [L6Y] the value was 2.56; for QEAKLMHWNGRHKPWDFPSVHNDL [L6M], 2.3.
As for QEAKLVHWNGRHKPWDFPSVHNDL [L6V], the protein stability index stood at 2.48.
For QEAKLNHWNGRHKPWDFPSVHNDL [L6N] the value was 2.71.
